In patent US20180141989A1 (BOARD OF REGENTS OF THE UNIVERSITY OF OKLAHOMA, published 2018):
Where no end group is shown, it is not given here.

Legend:
[1] = target: MBP-RAMP2 ECD [L106R]-(GS)5-CLR ECD-H6 fusion protein (human) (UniProt O60895); assay: FP (anisotropy) competition: displaces FITC-Ahx-AM(37-52)NH2[S45W,Q50W] probe (7 nM) from MBP-RAMP2 ECD[L106R]-(GS)5-CLR ECD-H6 (110 nM) [G-H) panel G]
[2] = target: MBP-RAMP2 ECD [L106R]-(GS)5-CLR ECD-H6 fusion protein (human) (UniProt O60895); assay: FP competition vs FITC-AM W/W probe, purified ECD fusion
[3] = target: T1, MBP-RAMP1 ECD-(GS)5-CLR ECD-H6 fusion protein (human, UniProt O60894 24-111; Q16602 29-144); assay: ratio of FP KI values at the two ECD complexes
T1 construct: range 24-111;range 29-144; Tethered ECD fusion made in E. coli; used in the FP assay at 15 nM; also called MBP-hRAMP1.24-111-(Gly-Ser)5-hCLR.29-144-H6
T1 sequence (O60894 other isoform, or with tags, fused parts or gaps limits assumed, form in doubt): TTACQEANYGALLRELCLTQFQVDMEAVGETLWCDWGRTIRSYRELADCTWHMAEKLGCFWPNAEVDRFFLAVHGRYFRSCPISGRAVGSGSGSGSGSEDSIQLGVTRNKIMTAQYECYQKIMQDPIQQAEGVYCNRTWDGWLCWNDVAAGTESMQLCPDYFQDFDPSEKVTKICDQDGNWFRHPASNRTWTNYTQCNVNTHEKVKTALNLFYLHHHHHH
Procedure: (§1) Fluorescence polarization peptide binding assay. […] The reactions (50 μL) were incubated for 2 hours at room temperature to reach equilibrium, and the anisotropy was measured in black half-area 96-well plates using a BMG LABTECH's POLARstar® Omega plate reader (Ortenberg, Germany). The reaction buffer was 50 mM HEPES, pH 7.5, 150 mM NaCl, 0.5 mg/ml fatty acid-free BSA, 0.5 mM EDTA, 0.5 mM maltose. KI values were calculated using nonlinear regression fitting of the competition curves to the exact analytical equations of Roehrl et al. (Biochemistry (2004) 43:16056-66) using GraphPad Prism 5.0 (GraphPad Software, San Diego Calif.).
(§2) The large size difference between the MBP-RAMP ECD-CLR ECD fusion proteins (˜65 kDa) and the probe (˜2.5 kDa) ensures a significant anisotropy difference between bound and free states of the probe. […] Kd values for the probe at each of the tethered ECD fusion proteins were determined in equilibrium saturation binding experiments (data not shown), and KI values were determined for unlabeled peptides in equilibrium competition experiments (Table 1; FIGS. 2-5). The data were analyzed according to exact analytical equations using non-linear regression curve fitting in GraphPad Prism 5.0 (GraphPad Software) via user-defined equations.

[4] = target: T1, MBP-RAMP1 ECD-(GS)5-CLR ECD-H6 fusion …; assay: FP competition vs FITC-AM W/W probe, purified ECD fusion
Procedure: as §1, §2

[5] = target: T2, MBP-RAMP1 ECD-(GS)5-CTR ECD-H6 fusion protein (human, UniProt O60894 27-118; P30988 34-141, limits assumed); assay: AlphaLISA competition vs Biotin-AC413 probe, purified AMY1 ECD fusion
T2 construct: extracellular domain; CTR-based proteins were produced in HEK293T cells (N-glycosylated); also called RAMP1-CTR ECD; RAMP1-CTR
T2 sequence (O60894 other isoform, or with tags, fused parts or gaps limits assumed): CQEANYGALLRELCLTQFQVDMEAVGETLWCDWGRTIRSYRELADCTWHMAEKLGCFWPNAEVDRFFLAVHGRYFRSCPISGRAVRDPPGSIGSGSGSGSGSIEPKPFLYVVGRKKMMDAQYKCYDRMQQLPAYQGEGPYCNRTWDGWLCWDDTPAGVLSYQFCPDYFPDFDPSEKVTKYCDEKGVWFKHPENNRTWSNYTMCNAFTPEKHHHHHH
Procedure: A single representative experiment conducted with duplicate samples is shown. […] The reactions were incubated for 5 hours at room temperature to reach equilibrium, and the luminescence was measured in white 384-well plates using a BMG LABTECH's POLARstar® Omega plate reader (Ortenberg, Germany). The reaction buffer was 50 mM MOPS, pH 7.4, 150 mM NaCl, 7 mg/ml fatty acid-free BSA and the streptavidin-coated donor beads and MBP-antibody coated acceptor beads were at 15 μg/ml each. IC₅₀ values were calculated using nonlinear regression fitting of the competition curves to a three-parameter, one-site competitive binding equation in GraphPad Prism 5.0 (GraphPad Software, San Diego Calif.).

[6] = target: T1, MBP-RAMP1 ECD-(GS)5-CLR ECD-H6 fusion …; assay: FP (anisotropy) competition: displaces FITC-Ahx-AM(37-52)NH2[S45W,Q50W] probe (7 nM) from MBP-RAMP1 ECD-(GS)5-CLR ECD-H6 (15 nM) [A-C) panel C]
Procedure: as §1
as §1, with “Single representative experiments conducted with duplicate samples are shown.” for “Fluorescence polarization peptide binding assay.”, “reactions” for “reactions (50 μL)”

[7] = target: T1, MBP-RAMP1 ECD-(GS)5-CLR ECD-H6 fusion …; assay: FP (anisotropy) competition: displaces FITC-Ahx-AM(37-52)NH2[S45W,Q50W] probe (7 nM) from MBP-RAMP1 ECD-(GS)5-CLR ECD-H6 (15 nM) [D-E) panel D]
Procedure: as §1
as §1, with “Single representative experiments conducted with duplicate samples are shown.” for “Fluorescence polarization peptide binding assay.”, “reactions” for “reactions (50 μL)”

[8] = target: T1, MBP-RAMP1 ECD-(GS)5-CLR ECD-H6 fusion …; assay: FP (anisotropy) competition: displaces FITC-Ahx-AM(37-52)NH2[S45W,Q50W] probe (7 nM) from MBP-RAMP1 ECD-(GS)5-CLR ECD-H6 (15 nM) [D-E) panel E]
Procedure: as §1
as §1, with “Single representative experiments conducted with duplicate samples are shown.” for “Fluorescence polarization peptide binding assay.”, “reactions” for “reactions (50 μL)”

[9] = target: T1, MBP-RAMP1 ECD-(GS)5-CLR ECD-H6 fusion …; assay: FP (anisotropy) competition: displaces FITC-Ahx-AM(37-52)NH2[S45W,Q50W] probe (7 nM) from MBP-RAMP1 ECD-(GS)5-CLR ECD-H6 (15 nM) [I-J) lower graph]
Procedure: as §1

[10] = target: MBP-RAMP2 ECD [L106R]-(GS)5-CLR ECD-H6 fusion protein (human) (UniProt O60895); assay: FP (anisotropy) competition: displaces FITC-Ahx-AM(37-52)NH2[S45W,Q50W] probe (7 nM) from MBP-RAMP2 ECD[L106R]-(GS)5-CLR ECD-H6 (110 nM) [I-K) panel K]
[11] = target: MBP-RAMP2 ECD [L106R]-(GS)5-CLR ECD-H6 fusion protein (human) (UniProt O60895); assay: ratio of FP KI values at the two ECD complexes
[12] = target: MBP-RAMP2 ECD [L106R]-(GS)5-CLR ECD-H6 fusion protein (human) (UniProt O60895); assay: FP (anisotropy) competition: displaces FITC-Ahx-AM(37-52)NH2[S45W,Q50W] probe (7 nM) from MBP-RAMP2 ECD[L106R]-(GS)5-CLR ECD-H6 (110 nM) [A-C) panel B]
[13] = target: T1, MBP-RAMP1 ECD-(GS)5-CLR ECD-H6 fusion …; assay: FP (anisotropy) competition: displaces FITC-Ahx-AM(37-52)NH2[S45W,Q50W] probe (7 nM) from MBP-RAMP1 ECD-(GS)5-CLR ECD-H6 (15 nM) [F-H) panel G]
Procedure: as §1

[14] = target: T1, MBP-RAMP1 ECD-(GS)5-CLR ECD-H6 fusion …; assay: FP (anisotropy) competition: displaces FITC-Ahx-AM(37-52)NH2[S45W,Q50W] probe (7 nM) from MBP-RAMP1 ECD-(GS)5-CLR ECD-H6 (15 nM) [F-H) panel F]
Procedure: as §1

[15] = target: MBP-RAMP2 ECD [L106R]-(GS)5-CLR ECD-H6 fusion protein (human) (UniProt O60895); assay: FP (anisotropy) competition: displaces FITC-Ahx-AM(37-52)NH2[S45W,Q50W] probe (7 nM) from MBP-RAMP2 ECD[L106R]-(GS)5-CLR ECD-H6 (110 nM) [A-C) panel A]
[16] = target: T1, MBP-RAMP1 ECD-(GS)5-CLR ECD-H6 fusion …; assay: FP (anisotropy) competition: displaces FITC-Ahx-AM(37-52)NH2[S45W,Q50W] probe (7 nM) from MBP-RAMP1 ECD-(GS)5-CLR ECD-H6 (15 nM) [A-C) panel B]
Procedure: as §1

[17] = target: T1, MBP-RAMP1 ECD-(GS)5-CLR ECD-H6 fusion …; assay: AlphaLISA competition: displaces Biotin-CGRP probe (50 nM) from the RAMP1-CLR ECD fusion protein (5 nM)
Procedure: The probes were as described in Moad and Pioszak (Protein Sci. (2013) 22:1775-85). The reactions were incubated for 5 hours at room temperature to reach equilibrium, and the luminescence was measured in white 384-well plates using a BMG LABTECH's POLARstar® Omega plate reader (Ortenberg, Germany). The reaction buffer was 50 mM MOPS, pH 7.4, 150 mM NaCl, 7 mg/ml fatty acid-free BSA, and the streptavidin-coated donor beads and MBP-antibody coated acceptor beads were at 15 μg/ml each. IC₅₀ values were calculated using nonlinear regression fitting of the competition curves to a three-parameter, one-site competitive binding equation in GraphPad Prism 5.0 (GraphPad Software, San Diego Calif.).

[18] = target: MBP-RAMP2 ECD [L106R]-(GS)5-CLR ECD-H6 fusion protein (human) (UniProt O60895); assay: AlphaLISA competition: displaces Biotin-AM probe (25 nM) from the RAMP2-CLR ECD fusion protein (5 nM)
[19] = target: MBP-RAMP2 ECD [L106R]-(GS)5-CLR ECD-H6 fusion protein (human) (UniProt O60895); assay: AlphaLISA competition vs Biotin-AM probe
[20] = target: MBP-RAMP2 ECD [L106R]-(GS)5-CLR ECD-H6 fusion protein (human) (UniProt O60895); assay: AlphaLISA or AlphaScreen competition assays

MBP-RAMP2 ECD [L106R]-(GS)5-CLR ECD-H6 fusion protein (human), sequence (O60895 other isoform, or with tags, fused parts or gaps L106R L106R): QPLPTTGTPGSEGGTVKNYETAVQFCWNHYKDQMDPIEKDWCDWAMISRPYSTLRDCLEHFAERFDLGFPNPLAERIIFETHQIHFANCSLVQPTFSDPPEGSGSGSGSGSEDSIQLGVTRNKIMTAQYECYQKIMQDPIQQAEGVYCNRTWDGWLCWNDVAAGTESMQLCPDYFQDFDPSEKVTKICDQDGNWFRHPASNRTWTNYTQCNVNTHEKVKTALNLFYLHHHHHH

Row | Binder | Ki [2] [nM] | pKI [2] | Ki [4] [nM] | pKI [4] | also measured
1 | DKDNVAPRWLIGPWGF-NH2 [AM(37-52)NH2 [S45W, K46L, S48G, Q50W, Y52F]] | 1250 | 5.9 | – | – | IC50 (read off the curve) [1]: 200 nM
2 | FVPTDVGPWSF-NH2 [CGRP(27-37)NH2 [N31D, S34P, K35W, A36S]] | 2450 | 5.61 | 1.32 | 8.88 | Receptor Selectivity (fold, over RAMP2-CLR ECD) [3]: 1860 fold; IC50 [5]: 260 nM; IC50 (read off the curve) [6]: ~10 nM
3 | FVPTDTGPWGF-NH2 [CGRP(27-37)NH2 [N31D, V32T, S34P, K35W, A36G]] | – | – | 6.85 | 8.16 | IC50 (read off the curve) [7]: ~30 nM
4 | FVPTDTGPWSF-NH2 [CGRP(27-37)NH2 [N31D, V32T, S34P, K35W, A36S]] | 2750 | 5.56 | < 1 | > 9 | Receptor Selectivity (fold, over RAMP2-CLR ECD) [3]: ≥ 2750 fold; IC50 (read off the curve) [8]: ~10 nM
5 | DKWNVAPRSKISPWGY-NH2 (also called AM(37-52)NH2 [D39W, Q50W]) [AM(37-52) D39W/Q50W] | – | – | – | – | IC50 (read off the curve) [9]: ~400 nM; IC50 (read off the curve) [10]: 300 nM
6 | DKDNVAPRSKISPFGY-NH2 [AM(37-52)NH2 [Q50F]] | 2140 | 5.67 | 10500 | 4.98 | Receptor Selectivity (fold, over RAMP1-CLR ECD) [11]: 5 fold; IC50 (read off the curve) [12]: 4 µM
7 | DKDNVAPRWLMSPWGF-NH2 [AM(37-52)NH2 [S45W, K46L, I47M, Q50W, Y52F]] | – | – | 0.78 | 9.11 | IC50 (read off the curve) [13]: ~10 nM
8 | DKDNVAPRTLISPWGY-NH2 [AM(37-52)NH2[S45T, K46L, Q50W]] | 1570 | 5.8 | 65.6 | 7.18 | Receptor Selectivity (fold, over RAMP2-CLR ECD) [3]: 24 fold; IC50 (read off the curve) [14]: ~200 nM
9 | DKDNVAPRWKISPWGY-NH2 (also called S45W/Q50W double mutant) [AM(37-52)NH2 [S45W, Q50W]] | 81.3 | 7.09 | 44.7 | 7.35 | IC50 (read off the curve) [15]: 200 nM; IC50 (read off the curve) [16]: ~100 nM; IC50 [17]: 17 nM; IC50 [18]: 20 nM
10 | DKDNVAPRSKISPWGY-NH2 [AM(37-52)NH2 [Q50W]] | 316 | 6.5 | 501 | 6.3 | IC50 (read off the curve) [16]: ~1000 nM; fold increase in affinity (over AM(37-52)NH2, implied) [19]: 100 fold; IC50 (read off the curve) [12]: 0.6 µM; IC50 [17]: 400 nM; IC50 [18]: 44 nM
11 | DKDNVAPRSKISPQGY-NH2 [AM(37-52)NH2] | 20400 | 4.69 | – | – | IC50 [20]: 5 to 15 µM; IC50 [18]: 5000 nM
